Assay results published in the supplement of paper PMC12042874.
± gives the uncertainty stated by the source.

Experiment: amyloid nucleation score (Sup35N fusion, yeast selection) (log enrichment); library NNK3; higher = more nucleation; inactive = no reads after selection
How it was run: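 Three technical output replicates were used for random libraries. Psi-negative yeast expressing peptides of 20 random codons fused to Sup35N were induced with 100 μM copper sulfate for 24 hours and grown 7 days at 30°C on medium lacking adenine and uracil, and input and output plasmid inserts were Illumina-sequenced, excluding sequences with under 100 input reads. The nucleation score is the DiMSum log enrichment of output over input reads, centred on the mode score of non-aggregating sequences.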
For MGEPGVDAFNRLTPKWCLIP, the amyloid nucleation score was “inactive”.
For MGNAEEIAIHDSSAWVVVAR, the amyloid nucleation score was “inactive”.
With MGQFVRYLMADSCL the amyloid nucleation score was “inactive”.
MHAMCQLWCSS showed an amyloid nucleation score of -0.323 ± 1.4.
In the case of MHAVDNNLRVNIIMSVLLYK, the amyloid nucleation score is reported as “inactive”.
With MHLLLQRIWVLQAK the amyloid nucleation score was “inactive”.
In the case of MHYMRFLWSGLLWASVETFV, the amyloid nucleation score is reported as “inactive”.
For MICRSSGFLYGCSWFGILYL, the amyloid nucleation score was “inactive”.
In the case of MIDIKCNERAFSEYRFWCRW, the amyloid nucleation score is reported as 0.141 ± 0.42.
In the case of MIKMAIRNLGYCSDYRTLCR, the amyloid nucleation score is reported as “inactive”.
For MILYPSYLPYLRMVDTTY, the amyloid nucleation score was “inactive”.
In the case of MISICCGIPCLFIFWFRASA, the amyloid nucleation score is reported as “inactive”.
For MIVVHEFLKGYVFSYRLYNL, the amyloid nucleation score was “inactive”.
With MIWAEQGFFVRWWDLFA the amyloid nucleation score was “inactive”.
Substance MIWFVLL has an amyloid nucleation score of 2.17 ± 0.089.
With MIWWYGVRSMIIDTGWYMHC the amyloid nucleation score was “inactive”.
In the case of MKFPEFQASCL, the amyloid nucleation score is reported as “inactive”.
With MKSKKPNSLDENYGSMRHF the amyloid nucleation score was “inactive”.
For MKSQVHNIKWLPTCS, the amyloid nucleation score was “inactive”.
With MKVWFSLPRILGGVKGTANK the amyloid nucleation score was “inactive”.
With MKWNPLDQTKL the amyloid nucleation score was “inactive”.
With MKYAFRFCRPSVRWVYDPRL the amyloid nucleation score was “inactive”.
With MLAHGFCQVSEWSRALFLRV the amyloid nucleation score was -0.244 ± 1.5.
With MLCAPVANLYCKHPWDS the amyloid nucleation score was “inactive”.
For MLEGQSSCRVITDLARL, the amyloid nucleation score was “inactive”.
For MLEYRVTARDGVLWEMGFGY, the amyloid nucleation score was “inactive”.
With MLFANRHNLESGWSL the amyloid nucleation score was “inactive”.
With MLFVEFSMGSHCRET the amyloid nucleation score was 1.53 ± 0.1.
For MLHLYQIIMRPYTLSGWWYY, the amyloid nucleation score was “inactive”.
For MLLDTLCNHLRVYKYVRGDG, the amyloid nucleation score was “inactive”.
In the case of MLSGWFGLMIGCTAVVWSDS, the amyloid nucleation score is reported as “inactive”.
MLSLSLYKLFLRWKRTSSHD gave an amyloid nucleation score of 0.904 ± 0.16.
For MLSMTRCAHIDGGDWFKMAV, the amyloid nucleation score was “inactive”.
With MLVAGPLGQE the amyloid nucleation score was “inactive”.
With MLVASGDTAENYSTSVYCV the amyloid nucleation score was “inactive”.
For MLWLNNGGLYWIALIFEMSS, the amyloid nucleation score was “inactive”.
In the case of MMLGVLYATLWPLLKLDCGE, the amyloid nucleation score is reported as “inactive”.
MMNVMFD showed an amyloid nucleation score of 0.661 ± 0.23.
In the case of MMTTGLLGVLTSCNSMT, the amyloid nucleation score is reported as “inactive”.
For MNCWYFLLGACWITIKHLFY, the amyloid nucleation score was “inactive”.
For MNFGFWGTVHWSHASNHVGS, the amyloid nucleation score was “inactive”.
MNFGYNNSFAIYSVFYSYRC showed an amyloid nucleation score of 2.69 ± 0.055.
For MNLDNFLFKVCLGSCF, the amyloid nucleation score was “inactive”.
For MNNCLSVDKCFHFMLGFSP, the amyloid nucleation score was “inactive”.
With MNRNVTSRVRTPPVCVRVRF the amyloid nucleation score was “inactive”.
For MNVFWCACYRCSDRVSMKVW, the amyloid nucleation score was 2 ± 0.058.
MNWYRIFVVNFSCKRLYSVK showed an amyloid nucleation score of 1.64 ± 0.067.
For MPCVMILYVIYSIY, the amyloid nucleation score was 0.013 ± 0.59.
For MPEKERAKSSPYLSEPRPHD, the amyloid nucleation score was “inactive”.
In the case of MPEVCDLMDHIICVCYGYID, the amyloid nucleation score is reported as “inactive”.
In the case of MPNLAFSG, the amyloid nucleation score is reported as 0.006 ± 0.3.
For MPPRVRYR, the amyloid nucleation score was “inactive”.
For MQLIIIWATRK, the amyloid nucleation score was 1.43 ± 0.14.
In the case of MQLSCRLGSLCSQQSNLARS, the amyloid nucleation score is reported as “inactive”.
In the case of MQSNCTVMTNPNDKRMAAWW, the amyloid nucleation score is reported as “inactive”.
For MQYDASP, the amyloid nucleation score was “inactive”.
For MRKLDPFNSKP, the amyloid nucleation score was “inactive”.
MRNMCVLAIILILCFGTRFK gave an amyloid nucleation score of 1.21 ± 0.08.
In the case of MRNVVSSISRCFDMKAVQQR, the amyloid nucleation score is reported as “inactive”.
In the case of MRWCNQDQL, the amyloid nucleation score is reported as “inactive”.
With MSCYVV the amyloid nucleation score was “inactive”.
With MSEVPGMNDTWRVCIMDQGK the amyloid nucleation score was “inactive”.
For MSGLLCAEIWSRCPASFIGD, the amyloid nucleation score was “inactive”.
For MSIMVASRLALARNVPLQKV, the amyloid nucleation score was “inactive”.
For MSLNLHLKQGVFKGHTVSAL, the amyloid nucleation score was “inactive”.
In the case of MSLNNGGSGSCVCPFR, the amyloid nucleation score is reported as “inactive”.
For MSMFYSNRHNPVKRTSGTGL, the amyloid nucleation score was “inactive”.
For MSMLYSGWAYELTLHYMRPA, the amyloid nucleation score was “inactive”.
For MSMYVTSF, the amyloid nucleation score was “inactive”.
In the case of MSNRHWM, the amyloid nucleation score is reported as “inactive”.
For MSPIDGDDSG, the amyloid nucleation score was “inactive”.
In the case of MSPPCFNRMSYIMLPWFVML, the amyloid nucleation score is reported as “inactive”.
MSSSIILWNFCNMDRCSLLV showed an amyloid nucleation score of -0.084 ± 0.49.
With MSTMFVPLSCFSENKRQTLS the amyloid nucleation score was “inactive”.
MSVRGHSSTVVYLCREPGLK gave an amyloid nucleation score of 0.402 ± 0.38.
In the case of MSYMMSSTPSVFMACLGDS, the amyloid nucleation score is reported as “inactive”.
In the case of MTLSVRMAEEQN, the amyloid nucleation score is reported as “inactive”.
In the case of MTLWDWDYRLIVRIQLRSTQ, the amyloid nucleation score is reported as “inactive”.
With MTSFIFDVFCSCSCLYQRPL the amyloid nucleation score was “inactive”.
With MTSFVWSCWRHYYRSRIVVV the amyloid nucleation score was “inactive”.
With MTSMLVTMMPCWVMRFVVWE the amyloid nucleation score was “inactive”.
In the case of MVFLVVVWFVKNGWKCVYGS, the amyloid nucleation score is reported as “inactive”.
With MVFQYRYFSLLLVWSNCSGA the amyloid nucleation score was “inactive”.
In the case of MVGWVWERMRHAPWE, the amyloid nucleation score is reported as “inactive”.
With MVHPDTRKRQTRGTG the amyloid nucleation score was “inactive”.
In the case of MVKTFVLMTLHLGLMVRFLF, the amyloid nucleation score is reported as “inactive”.
In the case of MVLNERFFYTSTTGVICVTC, the amyloid nucleation score is reported as 1.73 ± 0.064.
In the case of MVNTM, the amyloid nucleation score is reported as “inactive”.
In the case of MVREFTQNSKVCSTVLCDGV, the amyloid nucleation score is reported as “inactive”.
Work on MVWKHYTSLNRDCVFNICCW yielded an amyloid nucleation score of 1.78 ± 0.063.
MWEKFQWCNIINGINSVCVV gave an amyloid nucleation score of 0.962 ± 0.16.
For MWLKPCRGKIKMRGYFSLNG, the amyloid nucleation score was “inactive”.
For MWSVLIRSTIDYAVPNWSRF, the amyloid nucleation score was “inactive”.
For MWWGWKRFHSMRNYDAYIQM, the amyloid nucleation score was “inactive”.
In the case of MYKFCSY, the amyloid nucleation score is reported as “inactive”.
With MYNSTLSWRL the amyloid nucleation score was “inactive”.
In the case of MYPLTVWIVLRLGDSFLK, the amyloid nucleation score is reported as “inactive”.
With MYQLLMFAYVT the amyloid nucleation score was “inactive”.
With MYQVDMMLCTITDWVGSNWY the amyloid nucleation score was 0.666 ± 0.27.
With MYREFYLNDQFNRPFPQSMD the amyloid nucleation score was “inactive”.
With MYRITQGHLR the amyloid nucleation score was “inactive”.
For MYSMVGNLTRSWEGIGLGLM, the amyloid nucleation score was “inactive”.
With MYTTDYVYRVLVSHFRVPRM the amyloid nucleation score was “inactive”.
With NAFICGSRYQVVKDSDDHCM the amyloid nucleation score was “inactive”.
For NAGYCVRTRSLGESLSIVRK, the amyloid nucleation score was “inactive”.
In the case of NALLAFPYQGSMHKCGLGRY, the amyloid nucleation score is reported as “inactive”.
Work on NASCGDNVLLYLFKMTFCLG yielded an amyloid nucleation score of 0.139 ± 0.25.
Work on NCHSFVYYSMLGVSLSISGN yielded an amyloid nucleation score of 2.29 ± 0.059.
For NCRLEESGLVTVNCVGYWWD, the amyloid nucleation score was “inactive”.
NCVYVLESD gave an amyloid nucleation score of -0.075 ± 0.32.
NCYRRTLHSSWREWIWPIGC gave an amyloid nucleation score of -0.062 ± 0.82.
NDFLDVGSVSSYVNTQLPMS gave an amyloid nucleation score of -0.086 ± 0.8.
For NDVPLDRQLVDGYIASARFG, the amyloid nucleation score was “inactive”.
For NEIQVKQRYVPPVSVSFVWW, the amyloid nucleation score was 1.59 ± 0.086.
In the case of NELCLVMIKKDVSMRVWLES, the amyloid nucleation score is reported as “inactive”.
Work on NELCVTFLGCRPYVPA yielded an amyloid nucleation score of -0.469 ± 1.1.
For NEMHFLS, the amyloid nucleation score was “inactive”.
For NEMQQYSHAPSPSVVWNAGF, the amyloid nucleation score was “inactive”.
In the case of NESHILPVVVMDCLRTFPTE, the amyloid nucleation score is reported as “inactive”.
In the case of NESLIKVCSALILRKNMCGP, the amyloid nucleation score is reported as “inactive”.
For NFATRDNWYRVTQTLEDWIK, the amyloid nucleation score was “inactive”.
In the case of NFHQMW, the amyloid nucleation score is reported as “inactive”.
In the case of NFIALSLFKLVCSAEICWLN, the amyloid nucleation score is reported as 0.617 ± 0.39.
In the case of NFLVVSNRYLYMVPNGHIKL, the amyloid nucleation score is reported as 2.96 ± 0.051.
With NFRCDICLPNLTRY the amyloid nucleation score was 0.313 ± 0.16.
Substance NFSETSAKYHVTSRGFSSSR has an amyloid nucleation score of 0.456 ± 0.21.
For NFVDVRIKFTLTADLGHNSG, the amyloid nucleation score was 0.756 ± 0.21.
With NFVGTICLCLSYYVSVNSCC the amyloid nucleation score was “inactive”.
With NGFLNSINGTVMVQGYSTAF the amyloid nucleation score was “inactive”.
In the case of NGFSTVTSSPGLCFLYRMFI, the amyloid nucleation score is reported as “inactive”.
For NGIMLQIRNPSSKLNNLLWF, the amyloid nucleation score was “inactive”.
For NGLPVLLEEDLS, the amyloid nucleation score was “inactive”.
For NGSIILICLVYVGLRCLWFL, the amyloid nucleation score was “inactive”.
In the case of NGWRCLTVWDLSLYHWGYFL, the amyloid nucleation score is reported as “inactive”.
For NHESVVWDMNGHPSPVGRGE, the amyloid nucleation score was “inactive”.
With NHGNSDEKTFPTMEN the amyloid nucleation score was “inactive”.
For NICMAI, the amyloid nucleation score was “inactive”.
With NIFNCDRGSFFLLYRGIGFY the amyloid nucleation score was “inactive”.
Substance NIIYYTTVGHVHSVW has an amyloid nucleation score of 1.04 ± 0.18.
In the case of NIKFIEHLLSYSSTPQPLTC, the amyloid nucleation score is reported as “inactive”.
In the case of NILKKLNVRNHFLVLMKKHM, the amyloid nucleation score is reported as “inactive”.
With NILRTRSRF the amyloid nucleation score was “inactive”.
Work on NISFFTHLVSYRPTVRSSD yielded an amyloid nucleation score of 1.24 ± 0.14.
For NIWLP, the amyloid nucleation score was “inactive”.
For NKDFGFSYIRTFPRILKVW, the amyloid nucleation score was “inactive”.
With NKFFDI the amyloid nucleation score was “inactive”.
For NKFKHESNTNYIPSRQYKVW, the amyloid nucleation score was “inactive”.
For NKMDSKYPGRLCLMWGW, the amyloid nucleation score was 0.48 ± 0.19.
In the case of NKPGVV, the amyloid nucleation score is reported as “inactive”.
With NKSLKLMYFSRDYFKDSRLN the amyloid nucleation score was “inactive”.
For NKVPVGG, the amyloid nucleation score was “inactive”.
Work on NKVSWIFNDSKGQGSV yielded an amyloid nucleation score of -0.291 ± 1.3.
Work on NLASCFVSIVEGSHFVYC yielded an amyloid nucleation score of 1.9 ± 0.1.
With NLDIWNLRQWSGVVYLV the amyloid nucleation score was 0.751 ± 0.14.
With NLFSRLRYSLSAFQIWRLSV the amyloid nucleation score was “inactive”.
With NLGLLKAVYCVG the amyloid nucleation score was “inactive”.
For NLINTVKYLNFDGLTAFSSQ, the amyloid nucleation score was “inactive”.
In the case of NLKNYVFWREILSYVSDPWD, the amyloid nucleation score is reported as “inactive”.
